Data published in US20090031441A1 (NATIONAL UNIVERSITY CORPORATION NAGOYA UNIVERSITY, published 2009).

Legend:
[1] = biological target: T1, RGA (Arabidopsis DELLA protein), yeast two-hybrid prey in pGADT7 AD vector (Arabidopsis, UniProt Q9SLH3 1-587); assay: yeast two-hybrid Assay B (beta-galactosidase), GA4 dose response 10^-5 to 10^-9 M
T1 construct: also called AtDELLA
T1 sequence (looked up): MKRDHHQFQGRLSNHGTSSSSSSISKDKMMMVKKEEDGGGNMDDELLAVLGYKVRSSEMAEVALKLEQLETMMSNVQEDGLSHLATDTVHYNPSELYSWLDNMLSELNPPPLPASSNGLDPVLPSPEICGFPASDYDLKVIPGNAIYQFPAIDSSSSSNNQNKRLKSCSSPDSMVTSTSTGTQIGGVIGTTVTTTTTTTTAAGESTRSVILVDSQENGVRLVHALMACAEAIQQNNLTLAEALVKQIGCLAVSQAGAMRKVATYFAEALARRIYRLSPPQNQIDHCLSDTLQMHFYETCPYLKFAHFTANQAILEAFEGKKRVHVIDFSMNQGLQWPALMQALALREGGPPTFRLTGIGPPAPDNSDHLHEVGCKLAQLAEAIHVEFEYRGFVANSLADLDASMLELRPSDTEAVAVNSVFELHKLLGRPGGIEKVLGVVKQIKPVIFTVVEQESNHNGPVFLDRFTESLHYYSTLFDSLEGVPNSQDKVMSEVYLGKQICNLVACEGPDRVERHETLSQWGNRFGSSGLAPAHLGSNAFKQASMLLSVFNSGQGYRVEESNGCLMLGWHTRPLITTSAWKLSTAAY
Protocol: Each AtGID1 was used as a bait while AtDELLA was a prey. GA₄ (10⁻⁵ M) was added to the medium. The bars indicates β-galactosidase activity when o-nitrophenol-β-D-galactopyranoside was used as a substrate (Assay B). The growth of each transformant in the defined medium for 2 days (Assay A) is shown beneath of each bar graph. The experiment was carried out in quadruplicate. The SD value shown in the figure was determined from three measurements. Panel B) depicts the dose response in AtGID1-RGA interaction in Assay B of Y2H. GA₄ (10⁻⁵ to 10⁻⁹ M) was added to the medium. The experiment was conducted in duplicates. The SD value shown in the figure was determined from three measurements. Panel C) depicts the results of an evaluation of the in vitro GA-binding potency of AtGID1 using AtDELLA. Left panel, 15 minutes after mixing AtGID1c (C), tritiated GA, with an excess amount of non-labeled GA (+) or without non-labeled GA (−). GAI (G) or RGA (R) was added, and then the GA-binding activity in each reaction mixture was measured according to the standard method. Recombinant protein originating from the vector (v) was used as a negative control. The experiment was carried out in duplicates. The SD value was determined from three measurements. Right panel, a profile of Western blotting for recombinant AtDELLA using an antibody to His tag. G, GAI; R, RGA; v, vector; M, molecular weight marker. […]

[2] = biological target: T2, RGL1 (Arabidopsis DELLA protein), yeast two-hybrid prey in pGADT7 AD vector (Arabidopsis, UniProt Q9C8Y3 1-511); assay: yeast two-hybrid without GA (FIG. 11); member RGL1 named in the legend of FIG. 11
T2 construct: also called AtDELLA
T2 sequence (looked up): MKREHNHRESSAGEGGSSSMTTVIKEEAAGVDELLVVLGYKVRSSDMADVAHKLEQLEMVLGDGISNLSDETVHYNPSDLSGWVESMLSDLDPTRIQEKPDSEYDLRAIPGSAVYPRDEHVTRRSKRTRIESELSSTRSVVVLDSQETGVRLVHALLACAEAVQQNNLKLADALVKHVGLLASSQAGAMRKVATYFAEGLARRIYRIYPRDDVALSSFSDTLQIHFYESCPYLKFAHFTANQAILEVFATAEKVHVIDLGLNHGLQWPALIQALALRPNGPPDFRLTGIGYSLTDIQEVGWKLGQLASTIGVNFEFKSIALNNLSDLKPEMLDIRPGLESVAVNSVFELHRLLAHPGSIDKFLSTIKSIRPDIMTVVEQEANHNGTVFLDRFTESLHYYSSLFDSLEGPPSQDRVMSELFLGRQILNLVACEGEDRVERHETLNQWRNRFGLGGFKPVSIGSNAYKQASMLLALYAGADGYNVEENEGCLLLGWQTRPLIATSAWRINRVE
Protocol: Arabidopsis has five DELLA proteins (RGA, GAI, RGL1, RGL2, and RGL3; collectively designated AtDELLA; Fleet, C. M., and Sun, T.-P. (2005) Curr. Opin. Plant Biol., 8, 77-85; Dill, A., and Sun, T. (2001) Genetics, 159, 777-785); therefore, there are 15 possible combinations of GID1/DELLA proteins. To verify the positive interactions between AtGID1-AtDELLA, two experiments were conducted using the yeast two hybrid (Y2H) system. In the first experiment (Assay A), a viable colony assay using a defined medium in which only positive clones would survive was carried out. In the second experiment (Assay B), β-galactosidase activity was measured, as reporter gene product of AtGID1-AtDELLA interactions.
BD Matchmaker Two-hybrid System 3 (Clontech, Palo Alto, Calif., USA; now part of Takara Bio) was used in the Y2H experiments. After confirming the PCR products of the AtGID1 genes by sequencing, PCR products were cloned into pGBKT7 DNA-BD shuttle vector to construct bait plasmids. […]
Thus, GA₄ (10⁻⁵ M) was used and added to the medium. […] As described above, all AtGID1-AtDELLA interactions were detected in a GA-dependent manner; however, interactions between AtGID1b and some AtDELLAs were detected, albeit weakly, in the absence of GA (FIG. 11).

- binding result [1]: binds
- binding result [2]: binds
B1: AtGID1b (At3g63010), yeast two-hybrid bait in pGBKT7 DNA-BD vector (receptor, not shown: small tags and cut ends)
chain: MAGGNEVNLNECKRIVPLNTWVLISNFKLAYKVLRRPDGSFNRDLAEFLDRKVPANSFPLDGVFSFDHVDSTTNLLTRIYQPASLLHQTRHGTLELTKPLSTTEIVPVLIFFHGGSFTHSSANSAIYDTFCRRLVTICGVVVVSVDYRRSPEHRYPCAYDDGWNALNWVKSRVWLQSGKDSNVYVYLAGDSSGGNIAHNVAVRATNEGVKVLGNILLHPMFGGQERTQSEKTLDGKYFVTIQDRDWYWRAYLPEGEDRDHPACNPFGPRGQSLKGVNFPKSLVVVAGLDLVQDWQLAYVDGLKKTGLEVNLLYLKQATIGFYFLPNNDHFHCLMEELNKFVHSIEDSQSKSSPVLLTP
notes: Bait fusion for the Y2H assays; also called Arabidopsis GID1
